# In US20250249077A1, “NAMPT FOR WOUND-HEALING AND STIMULATING HAIR GROWTH AND/OR REGROWTH” (Innovative Surgical Regeneration Holdings, LLC, priority 2022, published 2025):
# “Also recorded” adds a separate entry of the source.
# B1: NAMPT: Nicotinamide phosphoribosyltransferase protein, rate-limiting enzyme of the salvage NAD synthesis pathway; human sequence SEQ ID NO: 1; recombinant (protein, listed as Homo sapiens)
# chain: MNPAAEAEFNILLATDSYKVTHYKQYPPNTSKVYSYFECREKKTENSKLRKVKYEETVFYGLQYILNKYLKGKVVTKEKIQEAKDVYKEHFQDDVFNEKGWNYILEKYDGHLPIEIKAVPEGFVIPRGNVLFTVENTDPECYWLTNWIETILVQSWYPITVATNSREQKKILAKYLLETSGNLDGLEYKLHDFGYRGVSSQETAGIGASAHLVNFKGTDTVAGLALIKKYYGTKDPVPGYSVPAAEHSTITAWGKDHEKDAFEHIVTQFSSVPVSVVSDSYDIYNACEKIWGEDLRHLIVSRSTQAPLIIRPDSGNPLDTVLKVLEILGKKFPVTENSKGYKLLPPYLRVIQGDGVDINTLQEIVEGMKQKMWSIENIAFGSGGGLLQKLTRDLLNCSFKCSYVVTNGLGINVFKDPVADPNKRSKKGRLSLHRTPAGNFVTLEEGKGDLEEYGQDLLHTVFKNGKVTKSYSFDEIRKNAQLNIELEAAHH
# Assays:
# hair follicles = test: Hair growth after intradermal injection of NAMPT in the skin of mice; type: in vivo
# Source text: The mean number of hair follicles per field in the NAMiPT group is 33.93. The mean number of hair follicles per field in the control group is 27.47. The difference between the number of hair follicles per field between the NAMPT group and control group is statistically significant (p-value 0.0097 by unpaired t-test (GraphPad Prism 9).
# nondiabetic wounds = test: Splinted full thickness excisional wound model, nondiabetic (wildtype) mice; type: in vivo; conditions: versus control hydrogel
# Protocol: (§1) Diabetic, aged diabetic, and nondiabetic mice were purchased from JAX labs. Bilateral, symmetric full thickness wounds (which recapitulate complete skin tissue loss) were generated on the murine dorsum using a biopsy punch; wounds were treated with the disclosed therapeutic or the control vehicle.
# (§2) NAMPT hydrogel was administered on wounds, control hydrogel served as control.
# diabetic wounds [1] = test: Splinted full thickness excisional wound model, diabetic db/db mice; type: in vivo
# Protocol: as §1, §2
# diabetic wounds [2] = test: Single-cell RNA sequencing of NAMPT treated versus control diabetic wounds; type: in vivo, mice
# Source text: Studies including single-cell RNA sequencing performed by the authors have elucidated the mechanism of action of the disclosed novel treatment on complete skin regeneration and prevention of scarring.
# We performed gene ontology (GO) analysis on differentially expressed genes between the fibroblast clusters (clusters #0, #5, #10, and #12) to determine whether specific functions could be assigned to the different fibroblast subpopulations (FIG. 2A-E). […] Next, we performed gene ontology analysis on differentially expressed genes between NAMPT treated versus control Cluster #0 fibroblasts.
# We utilized the CellChat package to infer cell-cell communication in NAMPT treated diabetic wounds versus control diabetic wounds.
# Impaired cellular proliferation in diabetic wounds leads to delayed granulation tissue formation and delayed reepithelialization. We utilized the Tricycle package40 to determine the impact of NAMPT on cell cycle of diabetic wounds.
# [3] = pseudotime lineage analysis, relative to control wounds
molecule,measurement,setting,value
B1,mean number of hair follicles per field,"hair follicles; 15 fields at 200× magnification, counted manually, unblinded",33.93
same,"Difference between means (B − A) ± SEM, hair follicles per field","hair follicles; NAMPT group minus control group, unpaired t test",6.467 ± 2.329
same,"hair follicles, histological analysis versus control",hair follicles; NAMPT treated mice skin versus control,significant increase; also recorded: increased hair follicles
same,hair growth,"hair follicles; intradermal injection every 48 hours, compared to control",promoted hair growth visibly by 10 and 14 days
same,skin regeneration,nondiabetic wounds,sufficient to regenerate all tissues of the skin
same,skin regeneration,"diabetic wounds [1]; diabetic wounds, versus control hydrogel",sufficient to regenerate all tissues of the skin
same,percentage of area staining positive for Keratin15,"diabetic wounds [1]; immunohistochemistry, diabetic wounds vs control, n=3, p=0.0166",significantly increases
same,percentage of area staining positive for b-catenin,"diabetic wounds [1]; immunohistochemistry, diabetic wounds vs control, n=3, p=0.0332",significantly increases
same,Wnt-Fzd ligand-receptor interactions,diabetic wounds [2]; CellChat analysis,"increased diversity, number, and strength"
same,"gene expression for collagens Col1a1, Col1a2, Col3a1, Col5a2, Col6a1","diabetic wounds [2]; Cluster #0 fibroblasts, treated vs control",significantly increased
same,"epidermal stem cell markers Krt5, Krt14, Krt15, Trp63, Itgb1, Itga6","diabetic wounds [2]; Cluster #1 undifferentiated epidermal cells, compared to controls",significantly higher
same,"KEGG oxidative phosphorylation, fatty acid metabolism, TCA cycle, mTOR signaling and pyruvate metabolism pathways",diabetic wounds [2]; KEGG pathway analysis,significantly enhances
same,"proportion of cells in the S phase, G2/M phase, and M phase","diabetic wounds [2]; Tricycle cell cycle analysis, compared to controls",increases
same,Hgf signaling,diabetic wounds [2]; epidermal stem cell populations,promoted
same,Krt79+ and Krt6a/Krt6b+ cells,"diabetic wounds [2]; pseudotime lineage analysis, relative to control treated wounds",enriched
same,Krt77+ cells,diabetic wounds [2]; [3],increased
same,Pparg+/Fasn+ cells,diabetic wounds [2]; [3],enriched
same,"immune pathways (MHC-II, CD6, ALCAM, VISTA, MHC-I, CD80)",diabetic wounds [2]; treated diabetic wounds,upregulated
same,"pro-inflammatory pathways, including TNF and IL1",diabetic wounds [2]; treated diabetic wounds,activation
